Target: T1, purified human alpha globin (human, UniProt P69905 1-142, biotinylated using EZ-Link NHS-PEG4 Biotinylation Kit)
T1 construct: hemoglobin subunit alpha, human; called full-length alpha globin in the discussion; Immobilised through biotin on streptavidin biosensors; also called full-length alpha globin; source: purified
Assay: BLI; Octet RED96; biotinylated alpha globin immobilised on streptavidin biosensors; analyte in solution, 120 s association, 120 s dissociation in assay buffer
Details: both partners purified

T1 sequence (P69905 whole entry): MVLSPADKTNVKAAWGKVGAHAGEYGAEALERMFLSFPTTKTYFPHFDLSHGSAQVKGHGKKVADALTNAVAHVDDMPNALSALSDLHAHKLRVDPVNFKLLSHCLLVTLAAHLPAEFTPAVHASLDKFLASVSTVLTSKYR

B1: alpha hemoglobin stabilizing protein (natural protein, UniProt Q9NZD4 1-102, looked up)
chain: MALLKANKDLISAGLKEFSVLLNQQVFNDPLVSEEDMVTVVEDWMNFYINYYRQQVTGEPQERDKALQELRQELNTLANPFLAKYRDFLKSHELPSHPPPSS
notes: alpha hemoglobin stabilizing protein; also called AHSP
Q: With B1 as the binder, how does the Kd read?
A: 109 nM

Reference: paper doi:10.1101/2021.04.06.21255004, “Hemoglobin Interacts with Endothelial Nitric Oxide Synthase to Regulate Vasodilation in Human Resistance Arteries” (medRxiv, 2021)
